# Measured values: patent US10400249B2, “HPPD variants and methods of use” (priority 2014, dated 2019)
# Experiments:
# [1] = test system: Pseudomonas fluorescens HPPD protein; experiment: HGD assay: HPPD activity coupled to HGA dioxygenase, pI50 and type of inhibition (time-course); type: biochemical; details: for pI50-values of Cmpd. 2: assay not given, follows the time-course analysis (HGD assay)
# Procedure: (§1) HPPD proteins were produced and purified as described in WO2011/076882. The activity of HPPD proteins in absence or presence of HPPD inhibitors was determined using either the so called OD assay or the HGD assay.
# (§2) • a) The OD assay: The HPPD activity was determined colourimetrically by measuring the amount of HPP remaining in the assay mixture at the end of the incubation period after derivatisation of HPP with 2,4-dinitrophenylhydrazine (DNP) to form an amber-brown colored 2,4-dinitrophenylhydrazone under alkaline conditions. The assay was carried out at room temperature in Greiner F-bottom 96 well microplates. The assay mixture contained 50 mM Tris-HCl pH 7.8, 0.5 mM HPP, 10 mM ascorbate, 650 units of catalase and appropriate amounts of purified HPPD enzyme in a total assay volume of 100 μl. The reaction was started by the addition of enzyme. After an incubation time of 24 minutes, the reaction was stopped by the addition of 50 μl of a solution of 0.04% DNP dissolved in 3.8 N HCl. After a further 15-minute incubation period 100 μl of a 5 N KOH solution was added to the reaction mixture and the amount of unconsumed HPP was measured photometrically at 405 nm. Enzyme activity was calculated as the difference in E405 between assays lacking enzyme (negative control) and the enzyme containing assays (ΔE405=E405(negative control)−E405). Enzyme activity (nmol substrate consumed per min) was calculated from a calibration curve generated from HPP. pI50-values (the negative log value of the concentration of inhibitor necessary to inhibit 50% of the enzyme activity in molar concentration were determined from dose-response plots of HPPD activity versus inhibitor concentration tested (5.0×10^−6, 1.0×10^−5, 2.5×10^−5, 4.0×10^−5, 7.0×10^−5, 1.0×10^−4, 2.0×10^−4 and 5.0×10^−4M) using the 4 Parameter Logistic Model or Sigmoidal Dose-Response Model of the ID Business Solutions Ltd. XLfit software suite. The result “>5.6” means that the inhibition at the lowest inhibitor concentration tested was higher than 85% and the pI50-value could therefore not be precisely calculated within in the range of concentration of inhibitor tested. The result “<2.5” means that the inhibition at the highest inhibitor concentration tested was lower than 25% and the pI50-value could therefore not be precisely calculated within in the range of concentration of inhibitor tested. “n.d.” means not determined. • b) The HGD assay: With the HGD assay HPPD activity was measured at room temperature by adding appropriate amounts of HPPD to a solution of 200 mM Tris-HCl pH 7.6, 10 mM ascorbate, 20 μM FeSO4, 650 units of catalase, 8 μg HGA dioxygenase (HGA: homogentisate) and 600 μM HPP in a total volume of 1 ml. Initial reaction rates in the absence or presence of inhibitors were determined from the increase in absorbance at 318 nm due to the formation of maleylacetoacetate (ε318=11,900 M−1 cm-1). pI50-values (the negative log value of the concentration of inhibitor necessary to inhibit 50% of the enzyme activity in molar concentration were determined from dose-response plots of HPPD activity versus inhibitor concentration tested using the 4 Parameter Logistic Model or Sigmoidal Dose-Response Model of the ID Business Solutions Ltd. XLfit software suite. Due to the UV absorption of the HPPD inhibitors tested, inhibitor concentrations >100 μM could not be tested. The result “<4” means that the inhibition at 100 μM inhibitor concentration was lower than 25% and the pI50-value could therefore not be precisely calculated within in the range of concentration of inhibitor tested. “n.d.” means not determined. The HGD assay allowed to continuously follow HPPD-catalyzed HGA formation over time was therefore used to determine the inhibition type of the HPPD inhibitors tested. […] When in the presence of an inhibitor the HPPD activity was inhibited but the inhibition was found not to […] in a time-dependent manner, the inhibitor was called reversible (abbreviation “rev”). […]
# [2] = test system: Pseudomonas fluorescens HPPD protein; experiment: OD assay: HPPD activity and pI50 from HPP remaining after derivatisation with DNP; type: biochemical; details: for Activity DeltaE/24 min μg Protein: HPPD enzyme activity of the clone; for tolerance (pI50) Cmpd. 2: inhibitor Cmpd. 2; for tolerance (pI50) DKN: inhibitor diketonitrile (DKN), negative log of molar concentration; for tolerance (pI50) MST: inhibitor mesotrione (MST); for tolerance (pI50) TBT: inhibitor tembotrione (TBT)
# Procedure: as §1, §2
molecule,measurement,setting,value
"K325: PfHPPD variant A188G, R189C, P215N, E335P, G336F, A340E (protein, HPPD variant - K325, PfHPPD variant A188G, R189C, P215N, E335P, G336F, A340E) MADLYENPMGLMGFEFIEFASPTPGTLEPIFEIMGFTKVATHRSKNVHLYRQGEINLILNNEPNSIASYFAAEHGPSVCGMAFRVKDSQKAYNRALELGAQPIHIDTGPMELNLPAIKGIGGAPLYLIDRFGEGSSIYDIDFVYLEGVERNPVGAGLKVIDHLTHNVYRGRMVYWANFYEKLFNFREGCYFDIKGEYTGLTSKAMSAPDGMIRINLNEESSKGAGQIEEFLMQFNGEGIQHVAFLTDDLVKTWDALKKIGMRFMTAPPDTYYEMLEGRLPDHGEPVDQLQARGILLDGSSVEGDKRLLLQIFSETLMGPVFFEFIQRKGDDGFGPFNFKELFESIERDQVRRGVLTAD","mechanism of inhibition by Cmpd. 2, time-course of inhibition",[1],fully reversible inhibitor
same,pI50-values of Cmpd. 2,[1],5.5
same,Activity DeltaE/24 min μg Protein,[2],0.41 DeltaE/24 min μg Protein
same,tolerance (pI50) Cmpd. 2,[2],5.6
same,tolerance (pI50) DKN,[2],<2.5
same,tolerance (pI50) MST,[2],3.6
same,tolerance (pI50) TBT,[2],4.6
"K357: PfHPPD variant A188G, R189C, E335P, G336F, A340E (protein, HPPD variant - K357, PfHPPD variant A188G, R189C, E335P, G336F, A340E) MADLYENPMGLMGFEFIEFASPTPGTLEPIFEIMGFTKVATHRSKNVHLYRQGEINLILNNEPNSIASYFAAEHGPSVCGMAFRVKDSQKAYNRALELGAQPIHIDTGPMELNLPAIKGIGGAPLYLIDRFGEGSSIYDIDFVYLEGVERNPVGAGLKVIDHLTHNVYRGRMVYWANFYEKLFNFREGCYFDIKGEYTGLTSKAMSAPDGMIRIPLNEESSKGAGQIEEFLMQFNGEGIQHVAFLTDDLVKTWDALKKIGMRFMTAPPDTYYEMLEGRLPDHGEPVDQLQARGILLDGSSVEGDKRLLLQIFSETLMGPVFFEFIQRKGDDGFGPFNFKELFESIERDQVRRGVLTAD","mechanism of inhibition by Cmpd. 2, time-course of inhibition",[1],fully reversible inhibitor
same,pI50-values of Cmpd. 2,[1],5.1
same,Activity DeltaE/24 min μg Protein,[2],0.47 DeltaE/24 min μg Protein
same,tolerance (pI50) Cmpd. 2,[2],5.4
same,tolerance (pI50) DKN,[2],3.5
same,tolerance (pI50) MST,[2],4.1
same,tolerance (pI50) TBT,[2],5.3
"K303: PfHPPD variant L200I, P215L, E335P, G336F, A340E (protein, HPPD variant - K303, PfHPPD variant L200I, P215L, E335P, G336F, A340E) MADLYENPMGLMGFEFIEFASPTPGTLEPIFEIMGFTKVATHRSKNVHLYRQGEINLILNNEPNSIASYFAAEHGPSVCGMAFRVKDSQKAYNRALELGAQPIHIDTGPMELNLPAIKGIGGAPLYLIDRFGEGSSIYDIDFVYLEGVERNPVGAGLKVIDHLTHNVYRGRMVYWANFYEKLFNFREARYFDIKGEYTGITSKAMSAPDGMIRILLNEESSKGAGQIEEFLMQFNGEGIQHVAFLTDDLVKTWDALKKIGMRFMTAPPDTYYEMLEGRLPDHGEPVDQLQARGILLDGSSVEGDKRLLLQIFSETLMGPVFFEFIQRKGDDGFGPFNFKELFESIERDQVRRGVLTAD","mechanism of inhibition by Cmpd. 2, time-course of inhibition",[1],fully reversible inhibitor
same,pI50-values of Cmpd. 2,[1],5.0
same,Activity DeltaE/24 min μg Protein,[2],0.008 DeltaE/24 min μg Protein
same,tolerance (pI50) Cmpd. 2,[2],4.6
same,tolerance (pI50) MST,[2],3.2
same,tolerance (pI50) TBT,[2],4.2
"K304: PfHPPD variant L200M, P215L, E335P, G336F, A340E (protein, HPPD variant - K304, PfHPPD variant L200M, P215L, E335P, G336F, A340E) MADLYENPMGLMGFEFIEFASPTPGTLEPIFEIMGFTKVATHRSKNVHLYRQGEINLILNNEPNSIASYFAAEHGPSVCGMAFRVKDSQKAYNRALELGAQPIHIDTGPMELNLPAIKGIGGAPLYLIDRFGEGSSIYDIDFVYLEGVERNPVGAGLKVIDHLTHNVYRGRMVYWANFYEKLFNFREARYFDIKGEYTGMTSKAMSAPDGMIRILLNEESSKGAGQIEEFLMQFNGEGIQHVAFLTDDLVKTWDALKKIGMRFMTAPPDTYYEMLEGRLPDHGEPVDQLQARGILLDGSSVEGDKRLLLQIFSETLMGPVFFEFIQRKGDDGFGPFNFKELFESIERDQVRRGVLTAD","mechanism of inhibition by Cmpd. 2, time-course of inhibition",[1],fully reversible inhibitor
same,pI50-values of Cmpd. 2,[1],4.7
same,Activity DeltaE/24 min μg Protein,[2],0.011 DeltaE/24 min μg Protein
same,tolerance (pI50) Cmpd. 2,[2],4.6
same,tolerance (pI50) MST,[2],3.2
same,tolerance (pI50) TBT,[2],4.2
"K361: PfHPPD variant L200M, E335P, G336F, A340E (protein, HPPD variant - K361, PfHPPD variant L200M, E335P, G336F, A340E) MADLYENPMGLMGFEFIEFASPTPGTLEPIFEIMGFTKVATHRSKNVHLYRQGEINLILNNEPNSIASYFAAEHGPSVCGMAFRVKDSQKAYNRALELGAQPIHIDTGPMELNLPAIKGIGGAPLYLIDRFGEGSSIYDIDFVYLEGVERNPVGAGLKVIDHLTHNVYRGRMVYWANFYEKLFNFREARYFDIKGEYTGMTSKAMSAPDGMIRIPLNEESSKGAGQIEEFLMQFNGEGIQHVAFLTDDLVKTWDALKKIGMRFMTAPPDTYYEMLEGRLPDHGEPVDQLQARGILLDGSSVEGDKRLLLQIFSETLMGPVFFEFIQRKGDDGFGPFNFKELFESIERDQVRRGVLTAD","mechanism of inhibition by Cmpd. 2, time-course of inhibition",[1],fully reversible inhibitor
same,pI50-values of Cmpd. 2,[1],5.3
same,Activity DeltaE/24 min μg Protein,[2],0.21 DeltaE/24 min μg Protein
same,tolerance (pI50) Cmpd. 2,[2],5.2
same,tolerance (pI50) DKN,[2],3.4
same,tolerance (pI50) MST,[2],4.0
same,tolerance (pI50) TBT,[2],5.1
"K360: PfHPPD variant L200I, E335P, G336F, A340E (protein, HPPD variant - K360, PfHPPD variant L200I, E335P, G336F, A340E) MADLYENPMGLMGFEFIEFASPTPGTLEPIFEIMGFTKVATHRSKNVHLYRQGEINLILNNEPNSIASYFAAEHGPSVCGMAFRVKDSQKAYNRALELGAQPIHIDTGPMELNLPAIKGIGGAPLYLIDRFGEGSSIYDIDFVYLEGVERNPVGAGLKVIDHLTHNVYRGRMVYWANFYEKLFNFREARYFDIKGEYTGITSKAMSAPDGMIRIPLNEESSKGAGQIEEFLMQFNGEGIQHVAFLTDDLVKTWDALKKIGMRFMTAPPDTYYEMLEGRLPDHGEPVDQLQARGILLDGSSVEGDKRLLLQIFSETLMGPVFFEFIQRKGDDGFGPFNFKELFESIERDQVRRGVLTAD","mechanism of inhibition by Cmpd. 2, time-course of inhibition",[1],fully reversible inhibitor
same,pI50-values of Cmpd. 2,[1],5.5
same,Activity DeltaE/24 min μg Protein,[2],0.28 DeltaE/24 min μg Protein
same,tolerance (pI50) Cmpd. 2,[2],5.3
same,tolerance (pI50) DKN,[2],3.6
same,tolerance (pI50) MST,[2],4.3
same,tolerance (pI50) TBT,[2],5.3
"PfG336F: reference PfHPPD mutant G336F (protein, HPPD variant - Pf336F) MADLYENPMGLMGFEFIEFASPTPGTLEPIFEIMGFTKVATHRSKNVHLYRQGEINLILNNEPNSIASYFAAEHGPSVCGMAFRVKDSQKAYNRALELGAQPIHIDTGPMELNLPAIKGIGGAPLYLIDRFGEGSSIYDIDFVYLEGVERNPVGAGLKVIDHLTHNVYRGRMVYWANFYEKLFNFREARYFDIKGEYTGLTSKAMSAPDGMIRIPLNEESSKGAGQIEEFLMQFNGEGIQHVAFLTDDLVKTWDALKKIGMRFMTAPPDTYYEMLEGRLPDHGEPVDQLQARGILLDGSSVEGDKRLLLQIFSETLMGPVFFEFIQRKGDDGFGEFNFKALFESIERDQVRRGVLTAD",tolerance (pI50) DKN,"[1]; inhibitor diketonitrile (DKN), HGD assay",5.1
same,tolerance (pI50) MST,"[1]; inhibitor mesotrione (MST), HGD assay",5.1
same,tolerance (pI50) TBT,"[1]; inhibitor tembotrione (TBT), HGD assay",5.9
same,Activity DeltaE/24 min μg Protein,[2],0.66 DeltaE/24 min μg Protein
same,tolerance (pI50) DKN,[2],5.3
same,tolerance (pI50) MST,[2],5.6
